Experiment [1] addresses T1, full length mouse CNTFR (mCNTFR, amino acids 1-372, UniProtKB/Swiss-Prot Accession #088507) (mouse, UniProt O88507 23-342).
T1 construct: whole, on cells; also called HEK293/mCNTFR
T1 sequence (looked up): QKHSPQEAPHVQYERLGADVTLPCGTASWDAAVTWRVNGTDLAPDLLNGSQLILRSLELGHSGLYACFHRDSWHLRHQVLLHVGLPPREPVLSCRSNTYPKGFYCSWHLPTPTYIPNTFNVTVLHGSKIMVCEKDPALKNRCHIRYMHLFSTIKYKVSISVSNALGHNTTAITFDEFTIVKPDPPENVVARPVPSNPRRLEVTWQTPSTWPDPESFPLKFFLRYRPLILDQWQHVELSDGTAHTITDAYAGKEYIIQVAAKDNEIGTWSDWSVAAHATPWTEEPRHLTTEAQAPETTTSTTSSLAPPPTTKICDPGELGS
Put plainly: flow cytometry on HEK293/mCNTFR cells. As to the method:
(§1) To assess binding of the anti-CNTFR antibodies to CNTFR receptors expressed on the cell surface, each of the HEK293/CNTFR cells listed above or HEK293 parental cells were diluted to 5×10⁵ cells/well in 96-well v-bottom plates. […] Cells were fixed using BD CytoFix™ (Becton Dickinson, #554655), filtered, and then analyzed on IQuePlus® Flow Cytometer (Intellicyt®). Geometric Mean Fluorescent Intensity (MFI) values were calculated by Forecyt Software and plotted in GraphPad Prism using a 4-parameter logistic equation over the 8-point dose-response curve to obtain EC₅₀ values. […] The secondary only condition was excluded from the EC₅₀ calculation.
For orientation: A flow cytometer gives signals particle by particle.

The target in experiment [2] is T2, human CNTFR extracellular domain (Q23-V105)/mCNTFR (G106-S342) expressed with a C-terminal … (human/mouse chimera, UniProt P26992 23-342).
T2 construct: Human/mouse chimeric CNTFR domain protein; also called hCNTFR (Q23-V105)/mCNTFR (G106-S342).mmh; hCNTFR (Q23-V105)_mCNTFR (G106-S342).mmh
T2 chain: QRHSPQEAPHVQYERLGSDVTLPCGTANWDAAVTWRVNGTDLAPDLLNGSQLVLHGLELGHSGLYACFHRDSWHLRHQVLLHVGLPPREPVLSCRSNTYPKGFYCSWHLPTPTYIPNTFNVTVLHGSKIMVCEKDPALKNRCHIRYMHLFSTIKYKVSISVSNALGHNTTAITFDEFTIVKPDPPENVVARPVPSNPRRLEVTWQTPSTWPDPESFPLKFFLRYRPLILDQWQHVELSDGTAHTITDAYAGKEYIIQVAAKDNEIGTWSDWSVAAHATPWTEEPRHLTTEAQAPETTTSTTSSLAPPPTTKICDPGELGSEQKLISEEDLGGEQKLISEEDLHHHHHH
Put plainly: SPR Biacore S200, antigen captured by anti-myc, mAb injected, 25 C. (In SPR one partner is held on a chip, and binding of the other changes the refractive index at the surface.)

Experiment [3] concerns the target T3, human CNTFR extracellular domain expressed with a C-terminal myc-myc-hexahistidine tag (human, UniProt P26992 23-342).
T3 construct: The entry holds the tag as well; also called hCNTFR-mmh; hCNTFR.mmh
Put plainly: SPR Biacore S200, antigen captured by anti-myc, 100 nM mAb injected, 25 C.

For experiment [4], the target named is T2, human CNTFR extracellular domain …. The experiment is described as above.
The target of experiment [5] is T4, human CNTFR extracellular domain (Q23-D205)/mCNTFR (P206-S342) expressed with a C-terminal … (human/mouse chimera, UniProt P26992 23-342).
T4 construct: Human/mouse chimeric CNTFR domain protein; also called hCNTFR (Q23-D205)/mCNTFR (P206-S342).mmh; hCNTFR (Q23-D205)_mCNTFR(P206-S342).mmh
The experiment is described as above.

Experiment [6] deals with T5, human CNTFR extracellular domain expressed with a C-terminal mouse IgG2a Fc tag (human).
T5 construct: also called hCNTFR-mFc; dimeric hCNTFR-mFc
T5 chain: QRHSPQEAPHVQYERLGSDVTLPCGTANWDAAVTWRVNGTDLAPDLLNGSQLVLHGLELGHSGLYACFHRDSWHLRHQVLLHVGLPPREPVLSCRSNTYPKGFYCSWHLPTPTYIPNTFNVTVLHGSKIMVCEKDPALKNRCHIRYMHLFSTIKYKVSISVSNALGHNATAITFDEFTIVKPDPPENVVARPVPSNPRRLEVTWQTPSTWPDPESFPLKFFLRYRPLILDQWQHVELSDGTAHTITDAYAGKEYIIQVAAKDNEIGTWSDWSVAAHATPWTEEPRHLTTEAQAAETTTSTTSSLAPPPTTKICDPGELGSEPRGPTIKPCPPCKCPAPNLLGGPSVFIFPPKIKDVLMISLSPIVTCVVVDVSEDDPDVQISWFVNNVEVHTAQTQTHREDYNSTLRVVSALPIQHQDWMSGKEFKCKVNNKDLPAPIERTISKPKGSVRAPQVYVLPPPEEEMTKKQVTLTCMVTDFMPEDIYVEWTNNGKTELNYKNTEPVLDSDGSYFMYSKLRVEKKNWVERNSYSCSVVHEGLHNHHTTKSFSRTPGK
Put plainly: SPR Biacore 4000, mAb captured by anti-human Fc, antigen injected, 37 C. The procedure:
(§2) Equilibrium dissociation constants (KD) for CNTFR binding to purified anti-CNTFR monoclonal antibodies were determined using a real-time surface plasmon resonance (SPR) based Biacore 4000 biosensor. All binding studies were performed in 10 mM HEPES, 150 mM NaCl, 3 mM EDTA, and 0.05% v/v surfactant Tween-20, pH 7.4 (HBS-ET) running buffer at 25° C. and 37° C. The Biacore CM4 sensor surface was first derivatized by amine coupling with a monoclonal mouse anti-human Fc antibody (REGN2567) to capture anti-CNTFR monoclonal antibodies. Different concentrations of CNTFR reagents, human CNTFR extracellular domain expressed with a C-terminal myc-myc-hexahistidine tag (hCNTFR-mmh; SEQ ID NO:42), monkey CNTFR extracellular domain expressed with a C-terminal myc-myc-hexahistidine tag (mfCNTFR-mmh; SEQ ID NO:43), mouse CNTFR extracellular domain expressed with a C-terminal myc-myc-hexahistidine tag (mCNTFR-mmh; SEQ ID NO:44), and human CNTFR extracellular domain expressed with a C-terminal mouse IgG2a Fc tag (hCNTFR-mFc; SEQ ID NO: 45), at concentrations ranging from 6.25 nM to 100 nM in a series of 4-fold dilutions prepared in HBS-ET running buffer were injected at a flow rate of 30 μL/min for 2.5 minutes. The dissociation of different CNTFR reagents bound to anti-CNTFR monoclonal antibodies was monitored for 10 minutes in HBS-ET running buffer. At the end of each cycle, the anti-CNTFR monoclonal antibodies capture surface was regenerated using a 12 sec injection of 20 mM H3PO4. The association rate (ka) and dissociation rate (kd) were determined by fitting the real-time specific binding sensorgrams to a 1:1 binding model with mass transport limitation using Scrubber 2.0c curve-fitting software. Binding dissociation equilibrium constant (KD) and dissociative half-life (t½) were calculated from the kinetic rates as: […]

The target of experiment [7] is T6, full length human CNTFR (hCNTFR, amino acids 1-372, UniProtKB/Swiss-Prot Accession #P26992) (human, UniProt P26992 23-342).
T6 construct: also called HEK293/hCNTFR; CNTFR endogenously expressed on IMR-32/STAT3-luc cells
T6 sequence: T1 sequence (looked up) with K2R, A18S, S28N, I53V, R55H, S56G, T169A, P294A
Briefly: flow cytometry on HEK293/hCNTFR cells. The procedure:
as §1

The target of experiment [8] is T7, mouse CNTFR extracellular domain expressed with a C-terminal myc-myc-hexahistidine tag (mouse, UniProt O88507 23-342).
T7 construct: The entry holds the tag as well; also called mCNTFR-mmh
Briefly: SPR Biacore 4000, mAb captured by anti-human Fc, antigen injected, 25 C. The procedure:
as §2

Experiment [9] addresses T5, human CNTFR extracellular domain …. Described as above. The procedure: as §2

One molecule from patent US20260201045A1 (Regeneron, published 2026) can be followed below.

Numbering of substitutions follows the chain as printed.

Usually Kd stands for the constant that tells how readily two partners part at equilibrium. As a reminder, the koff is a measure of how fast the partners let go of each other. A low value points to a long-lived complex. The kon is the second-order rate constant of association. Low readings indicate slower complex formation, high ones faster complex formation. In general, t½ refers to how long it takes for the measured level to halve. Low values mean fast loss, high ones slow loss. As a reminder, the EC50 is the concentration that produces a half-maximal response. A higher EC50 goes with a less potent agent.

B1: mAb25311P2 (antibody, human IgG4 S228P, kappa, V domains shown)
VH: QVQLVESGGGVVQPGRSLRLSCVASGFTFSTSVMHWVRQAPGKGLEWVANIWYDGINKFYVDSVKGRFTISRDNSKNTLYLQMNSLRAEDTAVYYCAREFWSAFDLWGQGTMVTVSS
VL: not shown
B1: the binding result in experiment [1] is “no binding (tested: 375 nM)”; in experiment [2], “no binding (tested: 100 nM)”; in [8], “no binding (tested: 100 nM)”. The “100 nM mAb Bound (RU)” value is 80 RU in [3], 1 RU in experiment [4] and 89 RU in experiment [5]. The equilibrium dissociation constant (Kd) in experiment [6] is 27.2 nM; in experiment [9], 7.22 nM. Moreover, the koff in experiment [6] came out at 0.000784 s⁻¹; in experiment [9], 0.000125 s⁻¹. Also, the values for the association rate constant (kon) in experiment [6] and in experiment [9] were 28800 M⁻¹ s⁻¹ and 17300 M⁻¹ s⁻¹, respectively. Further, the t½ was found to be 15 min in experiment [6] and 93 min in experiment [9]. The molecule also came in with an EC50 in experiment [7] of 4.33 nM. Also, the “Max. Fold Binding” value in experiment [7] is 510 fold over secondary antibody alone.
